We go through nine variants from IntAct's records for PubMed 20729810.

Sequences and labels used below:
B1: G protein-coupled receptor kinase 6 (Homo sapiens), P43250 (parent)
chain: MELENIVANTVLLKAREGGGGNRKGKSKKWRQMLQFPHISQCEELRLSLERDYHSLCERQPIGRLLFREFCATRPELSRCVAFLDGVAEYEVTPDDKRKACGRQLTQNFLSHTGPDLIPEVPRQLVTNCTQRLEQGPCKDLFQELTRLTHEYLSVAPFADYLDSIYFNRFLQWKWLERQPVTKNTFRQYRVLGKGGFGEVCACQVRATGKMYACKKLEKKRIKKRKGEAMALNEKQILEKVNSRFVVSLAYAYETKDALCLVLTLMNGGDLKFHIYHMGQAGFPEARAVFYAAEICCGLEDLHRERIVYRDLKPENILLDDHGHIRISDLGLAVHVPEGQTIKGRVGTVGYMAPEVVKNERYTFSPDWWALGCLLYEMIAGQSPFQQRKKKIKREEVERLVKEVPEEYSERFSPQARSLCSQLLCKDPAERLGCRGGSAREVKEHPLFKKLNFKRLGAGMLEPPFKPDPQAIYCKDVLDIEQFSTVKGVELEPTDQDFYQKFATGSVPIPWQNEMVETECFQELNVFGLDGSVPPDLDWKGQPPAPPKKGLLQRLFSRQDCCGNCSDSEEELPTRL

The variants in the first test derive from B1. Particulars: with rom1_bovin ROM1, P52205.
rom1_bovin ROM1, P52205, sequence (P52205 whole entry): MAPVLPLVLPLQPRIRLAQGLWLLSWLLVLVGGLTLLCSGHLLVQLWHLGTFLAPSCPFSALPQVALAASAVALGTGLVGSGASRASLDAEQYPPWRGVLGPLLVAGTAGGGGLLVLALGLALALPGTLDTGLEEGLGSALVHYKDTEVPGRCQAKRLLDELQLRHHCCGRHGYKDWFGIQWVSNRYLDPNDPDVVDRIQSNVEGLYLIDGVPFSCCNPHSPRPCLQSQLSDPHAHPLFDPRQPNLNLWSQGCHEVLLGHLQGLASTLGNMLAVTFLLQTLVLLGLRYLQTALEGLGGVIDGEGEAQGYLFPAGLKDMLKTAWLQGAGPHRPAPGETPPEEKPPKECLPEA
Take E4A: the “effect of a mutation on the interaction” value is given as “decreasing interaction”.

In a further test the parent is B1. The settings on record: with rom1_bovin ROM1, P52205. The source holds these as a separate data set.
Take L13A: the “effect of a mutation on the interaction” value was “decreasing interaction”.

The variants in another test derive from B1. Particulars: with rom1_bovin ROM1, P52205. This is another data set of the same source.
With V7A, the “effect of a mutation on the interaction” value is “decreasing interaction”.

A further test covers variants of B1. The settings on record: with rom1_bovin ROM1, P52205. The source holds these as a separate data set.
For V7E, the “effect of a mutation on the interaction” value is “disrupting interaction”.
On the same count and under the same terms, the entry for I6E is “disrupting interaction”.

The next test covers variants of B1. Particulars: with rom1_bovin ROM1, P52205. This is another data set of the same source.
For the variant L12A, the “effect of a mutation on the interaction” value is “disrupting interaction”.

In the next test the parent is B1. Particulars: with rom1_bovin ROM1, P52205. The source holds these as a separate data set.
As to N9A, the “effect of a mutation on the interaction” value was “disrupting interaction”.

In the next test the parent is B1. The settings on record: with rom1_bovin ROM1, P52205. This is another data set of the same source.
Take I6A: the “effect of a mutation on the interaction” value is listed as “decreasing interaction”.

A further test covers variants of B1. Particulars: with rom1_bovin ROM1, P52205. The source holds these as a separate data set.
Consider L3A, for which the “effect of a mutation on the interaction” value is reported as “decreasing interaction”.
